Test results: patent US20250215089A1 (HARBOUR BIOMED SHANGHAI, published 2025)
Changes are numbered by the printed parent chain. Names may count otherwise.

B1: PR007276 (bispecific antibody, human IgG1, kappa)
heavy: QVQLVESGGGVVQPGMSLRLSCAASGFDFSSYGMYWVRQAPGKGQEWVASIRYTGTEKHYADSVKGRFTISRDNSKNTLYLEMNSLRVEDTAVYYCAKNRALFGVIPDDSDIRGQGTMVTVSSGGGGSQVQLVQSGAEVKKPGASVKVSCKASGYTFAGYYMYWVRQAPGQGLEWMGWINPDSGAPTYAQKFQGRVTMTRDTSISTAYMELSRLRSDDTAVYYCAREKIYYGSGNYYPSFDYWGQGTLVTVSSASTKGPSVFPLAPSSKSTSGGTAALGCLVKDYFPEPVTVSWNSGALTSGVHTFPAVLQSSGLYSLSSVVTVPSSSLGTQTYICNVNHKPSNTKVDKKVEPKSCDKTHTCPPCPAPEAAGAPSVFLFPPKPKDTLMISRTPEVTCVVVDVSHEDPEVKFNWYVDGVEVHNAKTKPREEQYNSTYRVVSVLTVLHQDWLNGKEYKCKVSNKALPAPIEKTISKAKGQPREPQVYTLPPSREEMTKNQVSLTCLVKGFYPSDIAVEWESNGQPENNYKTTPPVLDSDGSFFLYSKLTVDKSRWQQGNVFSCSVMHEALHNHYTQKSLSLSPGK
light: DIQLTQSPSFLSASVGDRVTITCRASQGISSYLAWYQQKPGKAPKLLIYAASTLQSGVPSRFSGSGSGTEFTLTISSLQPEDFATYYCQQLASYPWTFGQGTKVEIKRTVAAPSVFIFPPSDEQLKSGTASVVCLLNNFYPREAKVQWKVDNALQSGNSQESVTEQDSKDSTYSLSSTLTLSKADYEKHKVYACEVTHQGLSSPVTKSFNRGEC
notes: VH of PR006248 (PD-L1) - GS_5 - heavy chain of CD40 IgG PR006495; human IgG1 L234A/L235A/G237A; also called PD-L1×CD40
B2: PR007617 (bispecific antibody, human IgG1, kappa)
heavy: QVQLVESGGGVVQPGMSLRLSCAASGFDFSSYGMYWVRQAPGKGQEWVASIRYTGTEKHYADSVKGRFTISRDNSKNTLYLEMNSLRVEDTAVYYCAKNRAIFGVIPDDSDIRGQGTMVTVSSGGSQVQLVQSGAEVKKPGASVKVSCKASGYTFAGYYMYWVRQAPGQGLEWMGWINPDSGAPTYAQKFQGRVTMTRDTSISTAYMELSRLRSDDTAVYYCAREKIYYGSGNYYPSFDYWGQGTLVTVSSASTKGPSVFPLAPSSKSTSGGTAALGCLVKDYFPEPVTVSWNSGALTSGVHTFPAVLQSSGLYSLSSVVTVPSSSLGTQTYICNVNHKPSNTKVDKKVEPKSCDKTHTCPPCPAPEAAGAPSVFLFPPKPKDTLMISRTPEVTCVVVDVSHEDPEVKFNWYVDGVEVHNAKTKPREEQYNSTYRVVSVLTVLHQDWLNGKEYKCKVSNKALPAPIEKTISKAKGQPREPQVYTLPPSREEMTKNQVSLTCLVKGFYPSDIAVEWESNGQPENNYKTTPPVLDSDGSFFLYSKLTVDKSRWQQGNVFSCSVMHEALHNHYTQKSLSLSPGK
light: B1 light
notes: VH of PR006246 (PD-L1) - GS_3 - heavy chain of CD40 IgG PR006495; human IgG1 L234A/L235A/G237A; also called PD-L1×CD40
B3: PR007618 (bispecific antibody, human IgG1, kappa)
heavy: B2 heavy with I102L
light: B1 light
notes: VH of PR006248 (PD-L1) - GS_3 - heavy chain of CD40 IgG PR006495; human IgG1 L234A/L235A/G237A; also called PD-L1×CD40
B4: PR007281 (bispecific antibody, human IgG1, kappa)
heavy: B1 heavy with L102I
light: B1 light with A92V
notes: VH of PR006246 (PD-L1) - GS_5 - heavy chain of CD40 IgG PR006504; human IgG1 L234A/L235A/G237A; also called PD-L1×CD40
B5: PR007616 (bispecific antibody, human IgG1, kappa)
heavy: B1 heavy
light: B1 light with A92Y
notes: VH of PR006248 (PD-L1) - GS_5 - heavy chain of CD40 IgG PR006497; human IgG1 L234A/L235A/G237A; also called PD-L1×CD40
B6: PR007280 (bispecific antibody, human IgG1, kappa)
heavy: B1 heavy with L102I, I106V, D109A
light: B1 light with A92V
notes: VH of PR006245 (PD-L1) - GS_5 - heavy chain of CD40 IgG PR006504; human IgG1 L234A/L235A/G237A; also called PD-L1×CD40
B7: PR007282 (bispecific antibody, human IgG1, kappa)
heavy: B1 heavy with D109A
light: B1 light with A92V
notes: VH of PR006247 (PD-L1) - GS_5 - heavy chain of CD40 IgG PR006504; human IgG1 L234A/L235A/G237A; also called PD-L1×CD40
B8: PR007620 (bispecific antibody, human IgG1, kappa)
heavy: B2 heavy with I102L
light: B1 light with A92V
notes: VH of PR006248 (PD-L1) - GS_3 - heavy chain of CD40 IgG PR006504; human IgG1 L234A/L235A/G237A; also called PD-L1×CD40
B9: PR007556 (bispecific antibody, human IgG1, kappa)
heavy: B1 heavy
light: B1 light with A92F
notes: VH of PR006248 (PD-L1) - GS_5 - heavy chain of CD40 IgG PR006496; human IgG1 L234A/L235A/G237A; also called PD-L1×CD40

target: T1, human CD40 (human, UniProt P25942 21-277); experiment: FACS, Raji cells
T1 construct: whole, on cells; also called hCD40; TNFRSF5
T1 sequence (P25942 21-277): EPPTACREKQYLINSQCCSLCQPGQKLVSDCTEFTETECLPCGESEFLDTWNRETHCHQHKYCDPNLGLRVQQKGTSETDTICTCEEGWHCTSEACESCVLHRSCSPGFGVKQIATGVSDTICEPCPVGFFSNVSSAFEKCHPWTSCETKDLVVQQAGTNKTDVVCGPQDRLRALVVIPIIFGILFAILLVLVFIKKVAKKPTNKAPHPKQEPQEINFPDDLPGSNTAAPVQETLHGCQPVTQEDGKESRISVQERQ
Method: (§1) The cells were incubated at 4° C. for 1 hours in the dark. After the incubation, the cells were rinsed twice by adding pre-chilled PBS at 100 μL/well, and centrifuged at 500 g at 4° C. for 5 minutes, and the supernatant was discarded. Then, a fluorescent secondary antibody (goat anti-human IgG (H+L) secondary antibody, Alexa Fluor® 488 conjugate, Invitrogen, #A11013, 1:1000 dilution) was added at 100 μL/well, and the cells were incubated at 4° C. for 30 minutes in the dark. The cells were washed twice with pre-chilled PBS at 200 μL/well, and centrifuged at 500 g at 4° C. for 5 minutes, and the supernatant was discarded. Finally, the cells were resuspended in pre-chilled PBS at 200 μL/well. The fluorescence signal values were read using a BD FACS CANTOII flow cytometer or ACEA NovoCyte flow cytometer, and the data were processed and analyzed using FlowJo v10 software (FlowJo, LLC).

EC50 [nM]	Maximum MFI [MFI]	Binder
1.45	7570	B1
1.27	6850	B2
1.23	6700	B3
1.46	7600	B4
1.24	6680	B5
1.65	7700	B6
1.45	7520	B7
1.32	6710	B8
1.28	6560	B9

target: T2, human PD-L1 (human, UniProt Q9NZQ7 19-290); experiment: FACS, NCI-H226 cells
T2 construct: whole, on cells; also called hPD-L1; CD274
T2 sequence (Q9NZQ7 19-290): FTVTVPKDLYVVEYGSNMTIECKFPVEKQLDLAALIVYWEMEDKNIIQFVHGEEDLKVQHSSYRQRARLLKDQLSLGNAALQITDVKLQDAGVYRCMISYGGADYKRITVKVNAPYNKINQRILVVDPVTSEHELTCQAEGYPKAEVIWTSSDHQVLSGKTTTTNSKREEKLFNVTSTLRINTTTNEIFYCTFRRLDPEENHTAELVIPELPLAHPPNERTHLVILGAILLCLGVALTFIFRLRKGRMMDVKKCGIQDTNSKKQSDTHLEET
Method: (§2) Specifically, the cells expressing PD-L1 were digested and resuspended in PBS buffer containing 2% BSA. The cells were adjusted to a cell density of 1×10⁶ cells/mL, respectively. The cells were seeded in a 96-well V-bottom plate (Corning, #3894) at 100 μL/well, and the antibody to be tested at 2×final concentration with 4-fold concentration gradient dilution was then added at 100 μL/well. The cells were incubated at 4° C. for 2 hours in the dark. After the incubation, the cells were rinsed twice by adding pre-chilled PBS containing 2% BSA at 100 μL/well, and centrifuged at 500 g at 4° C. for 5 minutes, and the supernatant was discarded. […] The cells were washed twice by adding pre-chilled PBS containing 2% BSA at 100 µL/well, and centrifuged at 500 g at 4° C. for 5 minutes, and the supernatant was discarded. Finally, the cells were resuspended in pre-chilled PBS buffer containing 2% BSA at 200 μL/well. The fluorescence signal values were read using a BD FACS CANTOII flow cytometer or ACEA NovoCyte flow cytometer, and the data were processed and analyzed using FlowJo v10 software (FlowJo, LLC).

EC50 [nM]	Maximum MFI [MFI]	Binder
0.569	927	B1
0.337	831	B2
0.322	902	B3
0.503	921	B4
0.303	800	B5
1.02	1020	B6
0.61	983	B7
0.281	1030	B8
0.452	861	B9

target: T2, human PD-L1; experiment: cell-based or functional assay

EC50, Jurkat-NFAT-hPD1 reporter [nM]	Maximum (RLU), Jurkat-NFAT-hPD1 reporter [RLU]	Binder
0.273	4060	B1
0.157	2190	B2
0.12	2470	B3
0.19	3840	B4
0.204	2590	B5
0.295	2560	B6
0.188	2480	B7
0.319	3740	B8
0.225	4080	B9

target: T1, human CD40; experiment: cell-based or functional assay

EC50, HEK293-hCD40-NFκB reporter, + CHO-K1 [nM]	EC50, HEK293-hCD40-NFκB reporter, + CHO-K1/hPD-L1 [nM]	Maximum (RLU), HEK293-hCD40-NFκB reporter, + CHO-K1 [RLU]	Maximum (RLU), HEK293-hCD40-NFκB reporter, + CHO-K1/hPD-L1 [RLU]	Binder
0.22	0.08	239000	379000	B1

target: T1, human CD40; experiment: FACS, CHO-K1/hCD40 cells
Method: as §1

EC50 [nM]	Maximum MFI [MFI]	Binder
2.35	14300	B1
1.96	16800	B2
2.22	16800	B3
2.13	14200	B4
1.99	19200	B5
3.83	15000	B6
1.88	13500	B7
2.2	15300	B8
1.69	14600	B9

target: T2, human PD-L1; experiment: FACS, CHO-K1/hPD-L1 cells
Method: as §2

EC50 [nM]	Maximum MFI [MFI]	Binder
1.18	19700	B1
1.01	20200	B2
1.04	20100	B3
1.13	19900	B4
1.07	20300	B5
1.58	20200	B6
1.46	20400	B7
1.15	20300	B8
1.03	20100	B9

target: T3, cynomolgus monkey CD40 (cynomolgus monkey); experiment: FACS, CHO-K1/cyCD40 cells
T3 construct: whole, on cells; also called cyCD40
Method: as §1

EC50 [nM]	Maximum MFI [MFI]	Binder
2.62	57000	B1
2.45	58700	B2
3.07	67900	B3
3.63	65000	B4
2.22	64700	B5
2.65	50100	B6
2.43	50100	B7
2.48	68000	B8
2.58	55500	B9

target: T4, cynomolgus monkey PD-L1 (cynomolgus monkey); experiment: FACS, CHO-K1/cyPD-L1 cells
T4 construct: whole, on cells; also called cyPD-L1
Method: as §2

EC50 [nM]	Maximum MFI [MFI]	Binder
0.656	4570	B1
0.635	4830	B2
0.69	4870	B3
0.632	4610	B4
0.687	4750	B5
1.02	4830	B6
0.834	4620	B7
0.757	4840	B8
0.683	4720	B9
